# From the RNAGym collection of RNA variant scans (doi:10.7554/elife.80360)
# B1: CPEB3 Ribozyme (parent)
# chain: GGGGGCCACAGCAGAAGCGUUCACGUCGCGGCCCCUGUCAGAUUCUGGUGAAUCUGCGAAUUCUGCUGU
# Variants of: B1
# Assay: self-cleavage, relative activity (ratio to wild type); higher = more cleavage; co-transcriptional
row,Variant,self-cleavage
1,U46C U61A,0.95
2,U46G G50A,0.981
3,U46G G50U,0.962
4,G48U C57A,0.316
5,U46G C63U,1.03
6,U46G C63A,0.869
7,G48C G56A,0.988
8,G48C G56C,0.778
9,G47A G56A,1
10,G47A G56U,1.01
11,G47U U53C,1.02
12,G47U U53G,0.991
13,G48C U67G,1.04
14,G48C U67A,1.01
15,G48C U67C,0.998
16,G47A C63A,0.898
17,U46G U67G,0.995
18,U46G U67A,0.99
19,G47C G65U,0.908
20,G47C G65C,0.726
21,G47C G65A,0.963
22,U46G C54G,0.907
23,G47A G48A,1.03
24,G47A G48C,1.03

row,Variant,self-cleavage
1,G47A A51U,0.953
2,G47A A51G,1.02
3,G47U A51U,1.01
4,G47U A51C,0.997
5,G48C C66A,0.91
6,G48C C66G,0.934
7,G48C C57G,0.285
8,G48C C57A,0.309
9,G48C,0.999
10,G48A,1
11,G48U,0.999
12,G48A U55G,0.993
13,G48A U55C,0.949
14,U46G A51G,0.618
15,U46G A51U,1
16,U46G A51C,0.949
17,U46G U62A,0.948
18,U46G U62G,0.877
19,U46G U62C,0.993
20,G48A G58A,0.961
21,G47A U69A,1.03
22,G47A U69G,1.05
23,G48C G58A,0.917
24,G48C G58C,0.974

row,Variant,self-cleavage
1,G47A G58A,0.96
2,G47A G58C,0.951
3,G47A A59U,0.872
4,U46G A52U,0.981
5,U46C U67C,0.962
6,U46C U67G,0.977
7,U46C U67A,0.938
8,G48A G56A,0.992
9,G48A G56C,0.949
10,G47A U55G,0.91
11,G47A U55C,0.966
12,G48C C54U,1.04
13,U46C U55C,0.701
14,U46C U55A,0.773
15,U46C U55G,0.768
16,G48A G65U,0.914
17,G48A G65A,0.992
18,G48A G65C,0.81
19,U46G C57U,0.391
20,U46G C57A,0.354
21,U46G C57G,0.303
22,G47A U49G,0.994
23,U46C G68C,0.985
24,U46C G68A,1

row,Variant,self-cleavage
1,G48A U67G,1.06
2,G48A U67C,0.958
3,G48A U67A,1.01
4,G47A U53A,1.02
5,G47A U53C,0.978
6,G47A U53G,0.971
7,G47C U55C,0.943
8,G47C G48A,0.988
9,G47U U64G,0.913
10,G48U A52G,0.983
11,G48U A52U,0.969
12,G48U A52C,0.987
13,G47A G65U,0.858
14,G47A G65C,0.79
15,G47U U49G,0.989
16,G48A U64C,1
17,G48A U64A,0.946
18,G48A U64G,0.902
19,G47A A60U,0.475
20,G48C A51G,0.995
21,G47C A60U,0.562
22,U46C U62A,0.943
23,U46C U62C,0.895
24,U46C U62G,0.916

row,Variant,self-cleavage
1,G48A U49C,0.959
2,G48A U49G,1.01
3,G47A A52G,0.969
4,G48U G56A,0.945
5,G48U G56U,0.994
6,G48U G56C,0.865
7,G47U G65C,0.736
8,G47U U61G,0.906
9,G47U U61A,0.984
10,G48A A52U,0.996
11,G48A A52C,0.975
12,G48A A52G,0.989
13,G47C U62G,0.901
14,G47C U62A,1
15,G48C U62G,0.913
16,G48U G58A,0.963
17,G48U G58U,0.999
18,G47C A59U,0.863
19,G47C A59G,0.958
20,G47C A59C,0.837
21,G47A C66U,0.959
22,G47A C66G,0.953
23,G48C A60U,0.552
24,G48C A60C,0.239

row,Variant,self-cleavage
1,G47C A51C,1.04
2,G48U U49A,1.02
3,G48U U49G,1.01
4,G48U U49C,0.981
5,G48C G65U,0.869
6,G48C G65A,0.926
7,G48C G65C,0.775
8,G47C G56U,1.02
9,G47C G56C,0.92
10,U46G G68U,0.971
11,U46G G68C,1.04
12,G48U U61C,0.905
13,G48U U61A,0.924
14,G48A C57G,0.31
15,G48A C57U,0.374
16,G47U A60G,0.912
17,G47U A60U,0.552
18,G47U A60C,0.386
19,G48A U69A,1.02
20,G48A U69C,1.06
21,G48A G50U,0.988
22,G48A G50A,0.985
23,G48A G50C,0.974
24,G47A U64A,0.958

row,Variant,self-cleavage
1,G47A U64C,0.974
2,U46G G65C,0.681
3,G47A G68U,1.01
4,G47A G68A,1.01
5,G47U U67C,1
6,G47C G58A,0.939
7,G47C G58U,0.997
8,G47C G58C,0.977
9,G48A A60U,0.516
10,G48A A60C,0.434
11,G47C U53C,0.992
12,G47C U53A,0.967
13,G47C U53G,0.911
14,G48U A51C,0.978
15,G48U A51G,0.959
16,G48U A51U,1
17,G47U C57A,0.396
18,G47U C57U,0.378
19,G47U C57G,0.311
20,G47C U69C,1.06
21,G48A C54G,1.02
22,G48A C54A,0.998
23,G48A C54U,1.01
